Measurements taken from paper PMC10441885.

Target: recombinant PsCAT1 fusion protein (His6-SUMO-PsCAT1 without the signal peptide, from pET15b-SUMO-PsCAT1) (Puccinia striiformis f. sp. tritici)
Experiment: SEC

recombinant PsCAT1 fusion protein (His6-SUMO-PsCAT1 without the signal peptide, from pET15b-SUMO-PsCAT1) (enzyme)
stoichiometry N: 23
